Target: linear tetra-Ub (UniProt P0CG47 1-76; P0CG47 1-76; P0CG47 1-76; P0CG47 1-76)

Kd: 4.7 µM
B1: GFP-UBAN (EGFP fused to the CoZi domain of murine NEMO, amino acids 183-339) (domain or fragment, UniProt O88522 183-339, looked up)
chain: QLESEREVLQQQHSVQVDQLRMQNQSVEAALRMERQAASEEKRKLAQLQAAYHQLFQDYDSHIKSSKGMQLEDLRQQLQQAEEALVAKQELIDKLKEEAEQHKIVMETVPVLKAQADIYKADFQAERHAREKLVEKKEYLQEQLEQLQREFNKLKVG
